Positions of bridges follow the written chain, without caps; N, C: chain ends. Chains are numbered I, II in the order given. No end group written: not given here. adamantane scaffold = adamantane core scaffold to which the peptide C-termini are attached
B1: Trim insulin mimetic (designed binder)
peptide 1: Ac-FYDWFERQ
peptide 2: SLEEEWAQ
modifications: linker I:C-II:C via trimesic acid scaffold; not fully specified (C-terminus); also: linker at chain A 8 at chain B 8 to a chain's C-terminus via trimesic acid scaffold
notes: minimal Site-1 peptide, derived from the phage display peptides S597 and S661; minimal Site-2 peptide, derived from the phage display peptides S597 and S661; Two peptides joined through their C-termini by a trimesic acid scaffold; also called antagonist; source: synthetic (solid-phase peptide synthesis)
B2: Ada insulin mimetic (designed binder)
peptide 1: Ac-FYDWFERQ
peptide 2: SLEEEWAQ
modifications: linker I:C-II:C via adamantane scaffold; not fully specified (C-terminus); also: mixture of two diastereoisomers
notes: minimal Site-1 peptide, derived from the phage display peptides S597 and S661; minimal Site-2 peptide, derived from the phage display peptides S597 and S661; Two peptides joined through their C-termini by an adamantane scaffold; Ada is an inseparable mixture of two diastereoisomers; only one fits the cryo-EM density; also called antagonist; source: synthetic (solid-phase peptide synthesis)

Molecular target: T1, IR-A in cell membranes of human IM-9 lymphocytes (human (endogenous in IM-9), UniProt P06213-2 28-1370)
T1 construct: human insulin receptor, isoform A (IR-A); Heterotetramer (alpha alpha' beta beta') of two protomers, each cut into an alpha and a beta subunit; written as one chain for the protomer; In the functional rows this molecule stands for human IR-A stably transfected in mouse embryonic fibroblasts; also called insulin receptor; source: endogenous, cell membranes of human IM-9 lymphocytes (ATCC)
T1 sequence (P06213 other isoform, or with tags, fused parts or gaps): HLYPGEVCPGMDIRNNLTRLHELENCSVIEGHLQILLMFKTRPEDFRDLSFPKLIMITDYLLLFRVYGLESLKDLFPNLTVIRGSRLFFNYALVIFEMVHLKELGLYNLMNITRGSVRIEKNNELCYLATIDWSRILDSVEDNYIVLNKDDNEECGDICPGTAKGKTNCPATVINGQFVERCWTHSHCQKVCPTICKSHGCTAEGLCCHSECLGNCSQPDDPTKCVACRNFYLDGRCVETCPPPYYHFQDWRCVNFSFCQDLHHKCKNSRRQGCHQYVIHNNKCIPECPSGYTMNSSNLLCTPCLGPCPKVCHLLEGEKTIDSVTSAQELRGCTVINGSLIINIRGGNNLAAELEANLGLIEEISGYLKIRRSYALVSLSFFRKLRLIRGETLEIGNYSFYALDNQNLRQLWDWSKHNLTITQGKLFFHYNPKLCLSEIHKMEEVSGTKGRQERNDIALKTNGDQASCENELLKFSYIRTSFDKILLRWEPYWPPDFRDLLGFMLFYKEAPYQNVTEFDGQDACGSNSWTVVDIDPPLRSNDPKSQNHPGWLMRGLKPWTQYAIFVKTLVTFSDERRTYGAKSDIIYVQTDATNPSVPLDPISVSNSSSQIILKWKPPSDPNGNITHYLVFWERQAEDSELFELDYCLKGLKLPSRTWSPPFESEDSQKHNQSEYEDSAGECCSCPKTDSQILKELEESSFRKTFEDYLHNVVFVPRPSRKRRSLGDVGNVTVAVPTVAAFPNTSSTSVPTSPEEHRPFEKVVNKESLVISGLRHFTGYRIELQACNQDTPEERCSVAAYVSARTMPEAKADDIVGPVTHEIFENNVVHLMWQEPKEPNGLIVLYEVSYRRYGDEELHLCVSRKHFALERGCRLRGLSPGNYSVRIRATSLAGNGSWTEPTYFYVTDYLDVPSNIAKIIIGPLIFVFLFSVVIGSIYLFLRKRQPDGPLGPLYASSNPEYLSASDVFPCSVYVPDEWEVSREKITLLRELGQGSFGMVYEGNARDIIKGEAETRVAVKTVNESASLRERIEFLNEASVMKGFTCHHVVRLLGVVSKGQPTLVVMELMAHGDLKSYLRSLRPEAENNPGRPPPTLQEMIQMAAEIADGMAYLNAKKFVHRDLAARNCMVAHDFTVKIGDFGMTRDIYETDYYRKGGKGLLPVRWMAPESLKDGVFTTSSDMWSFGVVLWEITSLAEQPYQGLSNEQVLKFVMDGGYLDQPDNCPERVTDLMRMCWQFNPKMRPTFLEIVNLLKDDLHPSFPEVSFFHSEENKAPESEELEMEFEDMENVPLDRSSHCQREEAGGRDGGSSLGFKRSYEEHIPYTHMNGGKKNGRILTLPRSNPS
Assay: radioligand binding; competition with [125I]-monoiodotyrosyl-TyrA14-insulin for IR-A in cell membranes of human IM-9 lymphocytes; each curve in duplicate, Kd from at least three curves; non-linear regression for one site binding with ligand depletion
Settings: one partner purified

Row | Binder | Kd
1 | B1 | 1260 nM
2 | B2 | 395 nM

Source: doi:10.1101/2025.08.05.667158, “Antagonistic insulin mimetics lock the insulin receptor in an alternative apo-state” (bioRxiv, 2025)
